In patent US20170355730 one finds kcat/KM data, which are given here for 5 proteins.

One data set concerns the target T1, Antp-PCP.
T1 chain: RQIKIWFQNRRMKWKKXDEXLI

Another data set has as its target T2, R9-PCP.
T2 chain: RRRRRRRRRXDEXLI

A further data set addresses T3, cFΦR4-PCP (not fully specified).
T3 chain: FXRRRRQXDEXLI

B1: VHR (protein)
chain: MSGSFELSVQDLNDLLSDGSGCYSLPSQPCNEVTPRIYVGNASVAQDIPKLQKLGITHVLNAAEGRSFMHVNTNANFYKDSGITYLGIKANDTQEFNLSAYFERAADFIDQALAQKNGRVLVHCREGYSRSPTLVIAYLMMRQKMDVKSALSIVRQNREIGPNDGFLAQLCQLNDRLAKEGKLKP
As usually defined, the kcat/KM is the turnover number divided by the Michaelis constant. As to B1, the results for the kcat/KM with Antp-PCP, in the data set with R9-PCP and in the data set with cFΦR4-PCP were 2030 M⁻¹ s⁻¹, 6240 M⁻¹ s⁻¹ and 2460 M⁻¹ s⁻¹, respectively.

B2: PTP1B (construct not stated) (protein)
chain: MEMEKEFEQIDKSGSWAAIYQDIRHEASDFPCRVAKLPKNKNRNRYRDVSPFDHSRIKLHQEDNDYINASLIKMEEAQRSYILTQGPLPNTCGHFWEMVWEQKSRGVVMLNRVMEKGSLKCAQYWPQKEEKEMIFEDTNLKLTLISEDIKSYYTVRQLELENLTTQETREILHFHYTTWPDFGVPESPASFLNFLFKVRESGSLSPEHGPVVVHCSAGIGRSGTFCLADTCLLLMDKRKDPSSVDIKKVLLEMRKFRMGLIQTADQLRFSYLAVIEGAKFIMGDSSVQDQWKELSHEDLEPPPEHIPPPPRPPKRILEPHN
With B2, the figures for the kcat/KM with Antp-PCP, with R9-PCP and in the data set with cFΦR4-PCP were 17400 M⁻¹ s⁻¹, 14700 M⁻¹ s⁻¹ and 37100 M⁻¹ s⁻¹, respectively.

B3: CD45 (protein)
chain: YKIYDLHKKRSCNLDEQQELVERDDEKQLMNVEPIHADILLETYKRKIADEGRLFLAEFQSIPRVFSKFPIKEARKPFNQNKNRYVDILPYDYNRVELSEINGDAGSNYINASYIDGFKEPRKYIAAQGPRDETVDDFWRMIWEQKATVIVMVTRCEEGNRNKCAEYWPSMEEGTRAFGDVVVKINQHKRCPDYIIQKLNIVNKKEKATGREVTHIQFTSWPDHGVPEDPHLLLKLRRRVNAFSNFFSGPIVVHCSAGVGRTGTYIGIDAMLEGLEAENKVDVYGYVVKLRRQRCLMVQVEAQYILIHQALVEYNQFGETEVNLSELHPYLHNMKKRDPPSEPSPLEAEFQRLPSYRSWRTQHIGNQEENKSKNRNSNVIPYDYNRVPLKHELEMSKESEHDSDESSDDDSDSEEPSKYINASFIMSYWKPEVMIAAQGPLKETIGDFWQMIFQRKVKVIVMLTELKHGDQEICAQYWGEGKQTYGDIEVDLKDTDKSSTYTLRVFELRHSKRKDSRTVYQYQYTNWSVEQLPAEPKELISMIQVVKQKLPQKNSSEGNKHHKSTPLLIHCRDGSQQTGIFCALLNLLESAETEEVVDIFQVVKALRKARPGMVSTFEQYQFLYDVIASTYPAQNGQVKKNNHQEDKIEFDNEVDKVKQDANCVNPLGAPEKLPEAKEQAEGSEPTSGTEGPEHSVNGPASPALNQGS
Take B3: the specificity constant (kcat/KM) stood at 22300 M⁻¹ s⁻¹ with Antp-PCP, 2940 M⁻¹ s⁻¹ with R9-PCP and 35100 M⁻¹ s⁻¹ with cFΦR4-PCP.

B4: SHP2 (protein)
chain: AEIESRVRELSKLAETTDKVKQGFWEEFETLQQQECKLLYSRKEGQRQENKNKNRYKNILPFDHTRVVLHDGDPNEPVSDYINANIIMPEFETKCNNSKPKKSYIATQGCLQNTVNDFWRMVFQENSRVIVMTTKEVERGKSKCVKYWPDEYALKEYGVMRVRNVKESAAHDYTLRELKLSKVGQGNTERTVWQYHFRTWPDHGVPSDPGGVLDFLEEVHHKQESIMDAGPVVVHCSAGIGRTGTFIVIDILIDIIREKGVDCDIDVPKTIQMVRSQRSGMVQTEAQYRFIYMAVQHYIETLQRR
As to B4, the kcat/KM with Antp-PCP was determined as 2210 M⁻¹ s⁻¹; with R9-PCP, 248 M⁻¹ s⁻¹; with cFΦR4-PCP it was 7400 M⁻¹ s⁻¹.

B5: TCPTP (protein)
chain: MPTTIEREFEELDTQRRWQPLYLEIRNESHDYPHRVAKFPENRNRNRYRDVSPYDHSRVKLQNAENDYINASLVDIEEAQRSYILTQGPLPNTCCHFWLMVWQQKTKAVVMLNRIVEKESVKCAQYWPTDDQEMLFKETGFSVKLLSEDVKSYYTVHLLQLENINSGETRTISHFHYTTWPDFGVPESPASFLNFLFKVRESGSLNPDHGPAVIHCSAGIGRSGTFSLVDTCLVLMEKGDDINIKQVLLNMRKYRMGLIQTPDQLRFSYMAIIEGAKCIKGDSSIQKRWKELSKEDLSPAFDHSPNKIMTEKYN
Consider B5, for which the kcat/KM in the data set with Antp-PCP worked out at 970 M⁻¹ s⁻¹; in the data set with R9-PCP, 457 M⁻¹ s⁻¹; with cFΦR4-PCP, 2780 M⁻¹ s⁻¹.
